Where two headings read alike, the source gives them in different places.
Key:
[1] = target: T1, wildtype feline IL-31 protein (Feline_IL31_wildtype) (feline); assay: cell-based or functional assay
T1 chain: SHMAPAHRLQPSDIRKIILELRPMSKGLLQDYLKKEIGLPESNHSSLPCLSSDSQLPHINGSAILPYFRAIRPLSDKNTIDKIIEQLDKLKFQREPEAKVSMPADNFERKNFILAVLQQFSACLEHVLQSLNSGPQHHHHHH

[2] = target: T1, wildtype feline IL-31 protein …; assay: cell-based or functional assay
[3] = target: T1, wildtype feline IL-31 protein …; assay: SPR (Biacore), feline IL-31 (SEQ ID NO 157)
Experimental: The affinity with which candidate mAbs bind canine and feline IL-31 was determined using surface plasmon resonance (SPR) on a Biacore system (Biocore Life Sciences (GE Healthcare), Uppsala, Sweden). To avoid affinity differences associated with differential surface preparation that can occur when immobilizing antibodies to surfaces; a strategy was employed where IL-31 was directly conjugated to the surface. Immobilization was obtained by amine coupling 5 μg/mL IL-31 using N-hydroxysuccinimide (NHS)/1-Ethyl-3-(3-dimethylaminopropyl) carbodiimide (EDC) chemistry. Chips were quenched with ethanolamine and the affinity with which all candidate mAbs bound to the immobilized IL-31 was evaluated. All curves were fit to a 1:1 model. […] Results for affinity measurements are described herein.
Cellular potency was assessed using feline IL-31 to stimulate pSTAT3 signalling in FCFW4 cells. IC₅₀ vlaues were calculated for each antibody as described previously in this application. […] It is worth noting that both antibodies are considered potent with IC₅₀s in the range of those antibodies previously described herein from the 15H05 lineage (FIG. 3).

human IL-31 = target: T2, human IL-31 (human, UniProt Q6EBC2 24-164); assay: SPR (Biacore), IL-31 surface, single antibody concentration
T2 sequence: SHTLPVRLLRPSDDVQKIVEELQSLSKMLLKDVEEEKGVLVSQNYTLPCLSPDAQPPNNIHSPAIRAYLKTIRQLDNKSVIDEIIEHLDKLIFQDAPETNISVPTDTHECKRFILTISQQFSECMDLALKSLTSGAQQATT

[4] = target: T3, mutant feline IL-31 11E12 protein (Feline_IL31_11E12_mutant) (feline); assay: as above
T3 construct: also called feline 11E12 mutant; 11E12 IL-31 mutant
T3 chain: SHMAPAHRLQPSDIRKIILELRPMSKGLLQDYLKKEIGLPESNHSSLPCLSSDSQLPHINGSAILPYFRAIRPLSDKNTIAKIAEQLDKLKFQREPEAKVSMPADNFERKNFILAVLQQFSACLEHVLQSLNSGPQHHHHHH

[5] = target: T4, equine IL-31 protein (Equine_IL31) (equine); assay: as above
T4 construct: Recombinant equine IL-31
T4 chain: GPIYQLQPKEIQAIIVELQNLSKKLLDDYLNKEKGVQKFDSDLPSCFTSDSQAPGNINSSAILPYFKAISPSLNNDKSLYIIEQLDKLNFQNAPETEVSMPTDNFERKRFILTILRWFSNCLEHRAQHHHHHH

[6] = target: T5, mutant feline IL-31 15H05 protein (Feline_IL31_15H05_mutant) (feline); assay: indirect ELISA, IL-31 protein coated
T5 construct: also called feline 15H05 mutant; 15H05 IL-31 mutant
T5 chain: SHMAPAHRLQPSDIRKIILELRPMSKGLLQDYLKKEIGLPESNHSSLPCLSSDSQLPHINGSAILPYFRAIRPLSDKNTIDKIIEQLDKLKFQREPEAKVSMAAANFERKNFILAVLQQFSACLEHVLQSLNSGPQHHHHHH
Experimental: (§1) For the indirect ELISA method, antibody binding to wildtype and feline IL-31 15H05 mutant proteins was assessed. All nine canine monoclonal antibodies (ZIL1, ZIL8, ZIL8, ZIL11, ZIL69, ZIL94, ZIL154, ZIL159, and ZIL171) were capable of binding to wildtype feline IL-31 and binding was impacted by mutations in the mAb 15H05 epitope region confirming the correct binding phenotype determined during the initial screening used to identify them. In comparison, the 11E12 antibody bound to the wild-type feline IL-31 and its binding was not impacted by the mutations in the 15H05 epitope region as evidenced by the data in FIG. 4. To confirm binding, biacore analysis was performed using canine, feline, equine, human, feline 15H05 mutant, and feline 11E12 mutant IL-31 proteins as surfaces and a single test concentration of antibody. Similar to ELISA observations, all antibodies tested bound to wildtype feline IL-31. In agreement with the data described above in this section, mouse antibodies 11E12 and 15H05 both bound to canine and feline IL-31 surfaces. Three additional antibodies where shown to have this dual binding property, ZIL69 (partial canine binding), ZIL94, and ZIL159. From this group of nine fully canine antibodies, only ZIL1 and ZIL9 cross-reacted with equine IL-31. Of note, antibody 15H05 was the only one of all assayed herein that bound to canine, feline, and equine IL-31 indicating some level of epitope conservation across the three species. In contrast, none of the antibodies described herein bound to human IL-31. Additional biacore surfaces were used to verify ELISA observations showing differential binding of antibodies to wildtype feline IL-31 and two proteins with mutations in the 15H05 (15H05 mutant) or 11E12 (11E12 mutant) epitopes. […] In agreement with the ELISA results, all fully canine antibodies were impacted by the 15H05 mutation with the exception of ZIL94, ZIL154, and ZIL171 (partially affected). Differing results can be attributed to differences in the two assay methodologies.

[7] = target: T1, wildtype feline IL-31 protein …; assay: indirect ELISA, IL-31 protein coated
Experimental: as §1

[8] = target: T4, equine IL-31 protein (Equine_IL31); assay: ELISA screening of hybridoma supernatants on equine IL-31
[9] = target: T6, mutant feline IL-31 15H05 protein (Feline_IL31_15H05_mutant) (feline); assay: indirect ELISA, IL-31 protein coated
T6 sequence: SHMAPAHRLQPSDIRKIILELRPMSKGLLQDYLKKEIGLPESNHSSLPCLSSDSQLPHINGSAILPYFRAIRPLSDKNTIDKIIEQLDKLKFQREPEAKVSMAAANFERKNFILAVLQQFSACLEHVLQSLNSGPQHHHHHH

B1: ZTS-5864 (antibody, V domains shown)
VH: DVQLVESGGDLVKPGGSLRLTCVASGFTFSDYAMSWVRQAPGKGLQWVAGIDSVGSGTSYADSVKGRFTISRDNAKNTLYLQMNSLKTEDTATYYCASGFPGSFEHWGQGALVTVSS
VL: QSVLTQPSSVSGTLGQRITISCTGSSSNIGSGYVGWYQQVPGMGPKTVIYYNSDRPSGVPDRFSGSKSGSSGTLTITGLQAEDEADYYCSVYDRTFNAVFGGGTHLTVLG
notes: see recheck
IC50, feline IL-31 stimulated pSTAT3 signalling in FCFW4 cells, relative to ZTS-5865 [1]: ~3 fold | IC50, inhibition of feline IL-31 induced pSTAT3 in feline FCWF4 cells [2]: 3.73 µg/ml | Kd [3]: 0.571 nM | kon [3]: 108000 M⁻¹ s⁻¹

B2: ZIL154 (recombinant fully canine antibody) (antibody, V domains shown)
VH: EVHLVESGGDLVKPWGSLRLSCVASGFTFSDRGMSWVRQSPGKGLQWVAYIRYDGSRTDYADAVEGRFTISRDNAKNTLYLQMNSLRAEDTAVYYCARWDGSSFDYWGQGTLVTVSS
VL: DIVVTQTPLSLSVSPGETASFSCKASQSLLHSDGNTYLDWFRQKPGQSPQRLIYKVSNRDPGVPDRFSGSGSGTDFTLRISGVEADDAGLYYCMQAIHFPLTFGAGTKVELKR
notes: Fully canine IgG; also called CAN-ZIL154
binding result (human IL-31): no binding | binding result [4]: binds | binding result [5]: no binding | ELISA OD [6]: 1.38 OD | ELISA OD [7]: 1.62 OD

B3: mouse anti equine IL-31 antibody 04H07 (antibody, V domains shown)
VH: QVQLQQPGAELVRPGASVKLSCKASGYTFTSYWMNWAKQRPGQGLEWIGMIDPSDSEIHYNQVFKDKATLTVDKSSSTAYMQLSSLTSEDSAVYYCARQDIVTTVDYWGQGTTLTVSS
VL: DIVMSQSPSSLAVSVGEKVTMSCKSSQSLLYSINQKNHLAWFQQKPGQSPKLLIYWASTRESGVPARFTGSGSGTDFTLTISSVKTEDLAVYYCQQGYTYPFTFGSGTKLEIK
notes: Mouse hybridoma antibody; also called Mu_04H07
binding result [8]: binds

B4: mouse anti equine IL-31 antibody 06A09 (antibody, V domains shown)
VH: QVQLQQPGAELVRPGASVKLSCKAYGYTFTSYWMNWVKQRPGQGLEWIGMIDPSDSETHYNQIFRDKATLTIDKSSSTAYMQLSSLTSEDSAVYFCARQDIVTTVDYWGQGTTLTVSS
VL: DIVMSQSPSSLAVSVGEKVTMSCKSSQSLLYSINQKNFLAWYQQKPGQSPKLLIYWASTRESGVPDRFTGSGSGTDFTLTISSVKSEDLAVYYCQQHYGYPFTFGSGTKLEIK
notes: Mouse hybridoma antibody; also called Mu_06A09
binding result [8]: binds

B5: ZIL159 (recombinant fully canine antibody) (antibody, V domains shown)
VH: EVQLVESGGDLVKPAGSLRLSCVASGFTFSSYVMTWVRQAPGKGLQWVAGINSEGSRTAYADAVKGRFTISRDNAKNTLYLQIDSLRAEDTAIYYCATGDIVATGTSYWGQGTLVTVSS
VL: SNVLTQPPSVSVSLGQTATISCSGETLNRFYTQWFQQKAGQAPVLVIYKDTERPSGIPDRFSGSSSGNIHTLTISGARAEDEAAYYCKSAVSIDVGVFGGGTHLTVFR
notes: also called CAN-ZIL159
ELISA OD [9]: 1.31 OD | binding result [4]: no binding | binding result [5]: no binding | ELISA OD [7]: 1.6 OD
